In IntAct's records for PubMed 18354482:

B1: RE1-silencing transcription factor (Homo sapiens), Q13127 (parent)
chain: MATQVMGQSSGGGGLFTSSGNIGMALPNDMYDLHDLSKAELAAPQLIMLANVALTGEVNGSCCDYLVGEERQMAELMPVGDNNFSDSEEGEGLEESADIKGEPHGLENMELRSLELSVVEPQPVFEASGAPDIYSSNKDLPPETPGAEDKGKSSKTKPFRCKPCQYEAESEEQFVHHIRVHSAKKFFVEESAEKQAKARESGSSTAEEGDFSKGPIRCDRCGYNTNRYDHYTAHLKHHTRAGDNERVYKCIICTYTTVSEYHWRKHLRNHFPRKVYTCGKCNYFSDRKNNYVQHVRTHTGERPYKCELCPYSSSQKTHLTRHMRTHSGEKPFKCDQCSYVASNQHEVTRHARQVHNGPKPLNCPHCDYKTADRSNFKKHVELHVNPRQFNCPVCDYAASKKCNLQYHFKSKHPTCPNKTMDVSKVKLKKTKKREADLPDNITNEKTEIEQTKIKGDVAGKKNEKSVKAEKRDVSKEKKPSNNVSVIQVTTRTRKSVTEVKEMDVHTGSNSEKFSKTKKSKRKLEVDSHSLHGPVNDEESSTKKKKKVESKSKNNSQEVPKGDSKVEENKKQNTCMKKSTKKKTLKNKSSKKSSKPPQKEPVEKGSAQMDPPQMGPAPTEAVQKGPVQVEPPPPMEHAQMEGAQIRPAPDEPVQMEVVQEGPAQKELLPPVEPAQMVGAQIVLAHMELPPPMETAQTEVAQMGPAPMEPAQMEVAQVESAPMQVVQKEPVQMELSPPMEVVQKEPVQIELSPPMEVVQKEPVKIELSPPIEVVQKEPVQMELSPPMGVVQKEPAQREPPPPREPPLHMEPISKKPPLRKDKKEKSNMQSERARKEQVLIEVGLVPVKDSWLLKESVSTEDLSPPSPPLPKENLREEASGDQKLLNTGEGNKEAPLQKVGAEEADESLPGLAANINESTHISSSGQNLNTPEGETLNGKHQTDSIVCEMKMDTDQNTRENLTGINSTVEEPVSPMLPPSAVEEREAVSKTALASPPATMAANESQEIDEDEGIHSHEGSDLSDNMSEGSDDSGLHGARPVPQESSRKNAKEALAVKAAKGDFVCIFCDRSFRKGKDYSKHLNRHLVNVYYLEEAAQGQE

Variants of: B1
Conditions: with fbw1a_human BTRC

effect of a mutation on the interaction	Variant
disrupting interaction strength	E1009A;S1013A
disrupting interaction strength	E1009A
disrupting interaction strength	S1013A
